Measured values: the DeepSol protein solubility set

Assay: soluble on expression in E. coli; label from the status in PepcDB or PDB records

| Sequence | soluble on expression in E. coli |
| --- | --- |
| MIQFKDSYKHYGANGREVTALQPLNLEIRAGEVFGIIGHSGAGKSTMLRMINRLEEPSGGHLLINGQDITVLDRMGLRALRRQIGMIFQHFNLLSSYTVAGNVAFPLKLTGASDAKINARVAELLAWVGLEAHANTYPAQLSGGQKQRVGIARALATRPQILLCDEVTSALDPQTTSTVLQLLARINRELGLTIVLITHEMDVIRRICDRVAVLDTGRLVEIGLVTDVFLHPQHPTTRSFVMETEHIDTSALDQDFALVKGRIVRLTFIGTDTYLPLLGRVARETGVDYNILSGRIDRIKETPYGQLTVALSGGDPVAAQAAFAAAGIHIEELRA | not soluble |
| HGSYIDITIDLKHYNGSVFDLRLSDYHPVKKVIDIAWQAQSVSMPPREGHWIRVVNKDKVFSGECKLSDCGITNGDRLEIL | soluble |
| MAHHHHHHMNAKNDASESLLCGGEDISALVVDLGFSTTKIGHNQEDTPRVFLRSTCGEDVSPDGGSPRGDPSPKLKFPLNLHNPKEHLRIKPLFERNPVDNTTHMNSDVFERILRYGIEGVESKRVFHCSDEIPTPVKLGGLNLKIEEHPILLSEENIHNHRVRAEMTEILFETFNIPAVYFAKKAKLTAFSLGRSNALVIDIGGSSLNVTPVYEGYVLQRNSLQFGVGGDYFDRLIYGMLRKDQVRVVPYYEQGRGGSGGLGSASASCSPSCSFSGATHHPNVHSSYEEEAILDVIRYMKESICKVRVAHQSSANKKSETTSGGLKNGKEVEPTGQTHNGAKNVNAPKWQTGQTEEEEFFELPDGVKIKTDKYRYDIAEELFRAVPSAHNFNGLPEAIVNCIISSDVDIRKELLQAIIVTGGSSLFPGLVDRLYNSLREKECFSQSIKMKILNMTSSVECLYSSWLGGSILASLGTFQQLWVSRAEYDDAGHAIVSDRCF | not soluble |
| MEGQENKVLFGLENVHYATYSETDGVITYDTPKPLPGGVEISVEPQGDMIKFYADNIVYYQAPNNQGYEGTLTIASIPEGFATDCLGEELDTVDGVLTEKSDAKPKPFALLFEFDGDVKSVRQVLYNCTASRPTVASSTLEHHHHHH | soluble |
| MAHHHHHHSLKCILLNQAEELPIEFLPKDGVYGKGKLFDSRNMEIENFTESDILQDARRAAEAHRRARYRVQSIVRPGITLLEIVRSIEDSTRTLLKGERNNGIGFPAGMSMNSCAAHYTVNPGEQDIVLKEDDVLKIDFGTHSDGRIMDSAFTVAFKENLEPLLVAAREGTETGIKSLGVDVRVCDIGRDINEVISSYEVEIGGRMWPIRPISDLHGHSISQFRIHGGISIPAVNNRDTTRIKGDSFYAVETFATTGKGSIDDRPPCSHFVLNTYKSRKLFNKDLIKVYEFVKDSLGTLPFSPRHLDYYGLVKGGSLKSVNLLTMMGLLTPYPPLNDIDGCKVAQFEHTVYLSEHGKEVLTRGDDY | not soluble |
| MGSDKIHHHHHHMFNTAVKILYRSLIELTNHRLSSYLIKGFCESKISKPVIPLFSKHFRLNWDDVDGTAADYGSLSELFIRQINLERRPVSKEAHAVVSPVDGVVQTVGIINPNQTFTVKGKDYSFAELTGCKSADHQYNGGYFVVLYLSPRHYHRFHSPISCRYQKLAELGNRSYPVNQLGLKYGKDVLSKNYRFVYELNSGSRNVLMIPVGAMNINSIVQTNTRTELEIGEELGYFSFGSTVILVFEKDAFQPSAHLAEGQEVQVGELIGYEE | not soluble |
| MFENESLSFEEQTIIQAAERYVQQELANEASGHDWWHIYRVTQLAKTIAEKEQANLFLCILTALLHDIGDEKFNESEEAGLLKVQQWLEANNVSTEQTNHILSIIANMSFKGGNTGKTVTTLEGKVVQDADRLDAIGAIGIARVMAYSGNKGRLIHDPHKQPREQLTQEEYRNGEDTAIMHFYEKLLKLKEQMNTNYGRLLAEKRHQFMELYLEEFYQEWDGHRLEHHHHHH | soluble |
| MDADSSNSTVTPGRLPDGLSSCPCFYLGKKLMNLSANAQATLLLTSDFSRAAASKYKPLSNSEWGKFALWLKHQRISPAELLVPQPQEKLTGWSDPRISQERILGLLARGHSLALAVDKWQRAGLWILTRGDADYPVRLKNRLRTDAPPVLFGCGNKALLQAEGMAIVGSRDAPTDDLRYTQQLAAKLAQQGICVISGGARGIDECAMASALEAGGTAVGVLADSLLKTSTLVKWREGLIAGNLVLISPFYPEVRFTVGNAMARNKYIYCLAESAMVVRAGMTGGTITGAMEALKHQWLPVQVKPNQDMQSANSRLVENGASWSAEQAENVTIRLPDVPGLMYDRALRNAQPELFSLHEDDANYAVMPAYTPVDFYQLFVAELAILAKESISIERLASCTGLTIEQISVWLNRAEEEGRVIRLGEGHYQFR | not soluble |
| MKIYLVGGAVRDALLGLPVKDKDWVVVGATPQEMLDAGYQQVGRDFPVFLHPQTHEEYALARTERKSGSGYTGFTCYAAPDVTLEADLQRRDLTINALARDDAGQIIDPYHGRRDLEARLLRHVSPAFGEDPLRVLRVARFAARYAHLSFRIADETLALMREMTAAGELEHLTPERVWKETENALTTRNPQVYFQVLRDCGALRVLFPEIDALFGVPAPAKWHPEIDTGVHTLMTLSMAAMLSPQLDVRFATLCHDLGKGLTPKNLWPRHHGHGPAGVKLVEQLCQRLRVPNDLRDLAKLVAEYHDLIHTFPILQPKTIVKLFDAIDAWRKPQRVEQIALTSEADVRGRTGFEASDYPQGRWLREAWQVAQAVPTKEVVEAGFKGIEIREELTKRRIAAVANWKEKRCPNPAS | not soluble |
| MKYMVVSSPIQEVLRLHKYIEISTTTITVKITNKMSSPVIGITFGNTSSSIAYINPKNDVDVIANPDGERAIPSALSYVGEDEYHGGQALQQLIRNPKNTIINFRDFIGLPFDKCDVSKCANGAPAVEVDGKVGFVISRGEGKEEKLTVDEVVSRHLNRLKLAAEDYIGSAVKEAVLTVPTNFSEEQKTALKASAAKIGLQIVQFINEPSAALLAHAEQFPFEKDVNVVVADFGGIRSDAAAIAVRNGIFTILATAHDLSLGGDNLDTELVEYFASEFQKKYQANPRKNARSLAKLKANSSITKKTLSNATSATISIDSLADGFDYHASINRMRYELVANKVFAQFSSFVDSVIAKAELDPLDIDAVLLTGGVSFTPKLTTNLEYTLPESVEILGPQNKNASNNPNELAASGAALQARLISDYDADELAEALQPVIVNTPHLKKPIGLIGAKGEFHPVLLAETSFPVQKKLTLKQAKGDFLIGVYEGDHHIEEKTLEPIPKEENAEEDDESEWSDDEPEVVREKLYTLGTKLMELGIK | not soluble |
| GIALVLIAAGLGLARLLLGPEVVAALVQRGNLVQTVVASGHIETPYRVEIASQITGTVKDVLVKEGEQVHQGQQLVAIEASELQASVVQAEGAVAQAQARVRQLRELTKPAADEALKQAQANLLNAQAAYERASKLAASGYGTKATLDDATKNLDVARTQVRTAELQVFTTSPGGSDFVMAETQLGQALANLNTAQARLGYATIVAPRDGVLITRNVERGTVVQPGKALLVLAPAGDIQIVVQIDEKNLGQLALGQHAMASADAYPDKRFDATLSYINPSVDINRASVEIKLKVDDPPDYLRQDMTVSVDIATARRDDVVIVPARAVNDAAAAPYVLKASGGRAVRQPVKLGLRGVGFYEVIDGLVPGDRVIPLATGVKPD | soluble |
| MAHHHHHHMKRENVSFPHAQSNVVSNLDGNTLLNDSLVQQSCSPTESKEDVKTEYDSFVDAPVIPLTEKFDDNYSQPVSTVNPRDDSIKCEMDVLPASSLTSVCNRKVIHGEKVDNDRVKIVRDWLLMPVLSQDSDFEGDGDDFIDTLLHIAEDKMYLYGFYERLGQTELVTTRRINNRKRSRGSNGISHATGNQGAQAPVMATSPPQVLPFSFVNWLPNSGKGRCDPERVHQQTISSDAILCSGEKYTLCRYALSSGKLRKECADPYQFLTAKLQEIRHCMEEELMGDAKNSNEKKTGVTDY | not soluble |
| LGQTTERYKSVIESMIEGIIIIDLEGKIIDHNKAATQIIGYEDLVLIGNDFSLGPGEAIREDETKFPFEEFPGIKTLRTGMPYKNVILGWIIPGKDTIWLSINSEPVKNENGEQVAVVCSYSDVT | not soluble |
| MGSDKIHHHHHHMVATLDDTKRNAIAVKLASIKALQQLVIENEQSLLREGLDAEIADRIRNFLKDDEKNLGVLETVIGQYGIQAEPKKNVTQFIEKARELFKGSELSLYEKVSQHELLKHQLVMSGLIVHKAAQKVGADVLLAIGPLNTINFENRAHQEQLKGILEILGVREFTGQDADQGIWARVQDAMAAVSGVVGSAVTQTSDKSDLNIQDVIRLDHNKVNTLFTELLQSDNPQKIQEYFGQIYKDLTAHAEAEEEVVYPRVRPFYGQDNTQELFDEQAEMKRVLEQIKAISPSSSEFKDRVRQLMEAVGDHIRQEESTMFAAIRNNLSSDQSEQLATEFKAAKTRIQEKLGVVSESNA | not soluble |
| ISEFDSGETMREEQPHLATTWAARGWVEEEGIGSATLGRLVRAWPRRAAVVNKADILDEWADYDTLVPDYPLEIVPFAEHPLFLAAEPHQRQRVLTGMWIGYNERVIATEQLIAEPAFDLVMHGVFPGSDDPLIRKSVQQAIVDESFHTYMHMLAIDRTRELRKISERPPQPELVTYRRLRRVLADMPEQWERDIAVLVWGAVAETCINALLALLARDATIQPMHSLITTLHLRDETAHGSIVVEVVRELYARMNEQQRRALVRCLPIALEAFAEQDLSALLLELNAAGIRGAEEIVGDLRSTAGGTRLVRDFSGARKMVEQLGLDDAVDFDFPERPDWSPHTPR | soluble |
| MGHHHHHHSHKRVVLKLSGEALAGEKGFGINPVIIKSVAEQVAEVAKMDCEIAVIVGGGNIWRGKTGSDLGMDRGTADYMGMLATVMNALALQDSLEQLDCDTRVLTSIEMKQVAEPYIRRRAIRHLEKKRVVIFAAGIGNPYFSTDTTAALRAAEVEADVILMGKNNVDGVYSADPKVNKDAVKYEHLTHIQMLQEGLQVMDSTASSFCMDNNIPLTVFS | not soluble |
| MAHHHHHHMLLAIVRDLLQLFRPYAAALHPETTQVWFSVRDTPLSWLYPAGAVKDYVNECVREERAAHLSASSPSSPPLSSAAALLQSHLCTILSEPLELSFHIHSLTKGSSLARTVPLYINYDRLEEHIRMEVKQAHKAAYTVLYGNYAIYQREAESALQAAVGLALYRPFDAAAQEQLQQQRYRDPGSSGSGGAGVGNGGYSSSNSPGGGYSAPFAFTSPYLLVEYQQLLRGLLTPRPHVAYLIRIGFPFAYRGAAGRSESGYLQYDAHRVSAAPALALSVTTTEAAAAPTMEPEQLPLGLLLWRLFRAPVLRWKAQQLQQHPTDNTSPSTAAHASATVLSEVERTYQQLLRTLAPYYADPPRCATDGLEQQEPLMTSTPPEPPAWAAWERAMVQAFMRDYEERPEKCGLGFEFAEAAATSAASPNAVRRVRFMVQGIQPPLTTPGSFLEAHLSSSDRAIFVTVQV | not soluble |
| ARKLFVLDTNVLLHDPSSLFRFEEHDIFLPMMTLEELDHQKKGMSEVARNARQVSRSLDSLVQDADNLDDGLALNALGNKDATGRLMFQTTAIHSTLPSDLPMGKADNQILGVVRALQERHPQREVVLVSKDINMRLKARALGMAAEDYYNDHVLEDTDLMYS | not soluble |
| MSLSEFLTKNEEKIEKIVKFHRSFDEMSQTQRQAWLEEMGDINIEHFFKANQRVFDEDGPRERSIPRRDFFLDVIKNRVKSDPLLQPKGHPVTNYLQENIHIRKLCEKITDTFCVEEIASYDAALNLLYELSKIHTHYLRKEDQLFPYLEKHNFTYPSTGMWKFQDEIRANLKMVIKAFEKNELNKEMQTLMRDVVKDIFDMTTREEKMLLPTSVKLLSNEEWIKMRKEEQEIGYVFIQSPPMWPEDESHKPDMASSLGSIFLQEGSLSQEQLNLFFSHLPFDVTFVDENDRVAFFNKGSERTFLRSAGVIGREVKFCHPPKSVDAVLKILEAFKAGTKESAEFWITFGGRLIHIRYFALRDSEKNYKGVVEITQDITDIKNIEGERRLLDWEEGHHHHHH | soluble |
